In patent US20050037431A1:

biological target: Met receptor on cells (A549, MDA-MB-435, BxPC3) (UniProt P08581); assay: cell-based or functional assay
Chain of UniProt P08581 (P08581 25-1390 limits assumed): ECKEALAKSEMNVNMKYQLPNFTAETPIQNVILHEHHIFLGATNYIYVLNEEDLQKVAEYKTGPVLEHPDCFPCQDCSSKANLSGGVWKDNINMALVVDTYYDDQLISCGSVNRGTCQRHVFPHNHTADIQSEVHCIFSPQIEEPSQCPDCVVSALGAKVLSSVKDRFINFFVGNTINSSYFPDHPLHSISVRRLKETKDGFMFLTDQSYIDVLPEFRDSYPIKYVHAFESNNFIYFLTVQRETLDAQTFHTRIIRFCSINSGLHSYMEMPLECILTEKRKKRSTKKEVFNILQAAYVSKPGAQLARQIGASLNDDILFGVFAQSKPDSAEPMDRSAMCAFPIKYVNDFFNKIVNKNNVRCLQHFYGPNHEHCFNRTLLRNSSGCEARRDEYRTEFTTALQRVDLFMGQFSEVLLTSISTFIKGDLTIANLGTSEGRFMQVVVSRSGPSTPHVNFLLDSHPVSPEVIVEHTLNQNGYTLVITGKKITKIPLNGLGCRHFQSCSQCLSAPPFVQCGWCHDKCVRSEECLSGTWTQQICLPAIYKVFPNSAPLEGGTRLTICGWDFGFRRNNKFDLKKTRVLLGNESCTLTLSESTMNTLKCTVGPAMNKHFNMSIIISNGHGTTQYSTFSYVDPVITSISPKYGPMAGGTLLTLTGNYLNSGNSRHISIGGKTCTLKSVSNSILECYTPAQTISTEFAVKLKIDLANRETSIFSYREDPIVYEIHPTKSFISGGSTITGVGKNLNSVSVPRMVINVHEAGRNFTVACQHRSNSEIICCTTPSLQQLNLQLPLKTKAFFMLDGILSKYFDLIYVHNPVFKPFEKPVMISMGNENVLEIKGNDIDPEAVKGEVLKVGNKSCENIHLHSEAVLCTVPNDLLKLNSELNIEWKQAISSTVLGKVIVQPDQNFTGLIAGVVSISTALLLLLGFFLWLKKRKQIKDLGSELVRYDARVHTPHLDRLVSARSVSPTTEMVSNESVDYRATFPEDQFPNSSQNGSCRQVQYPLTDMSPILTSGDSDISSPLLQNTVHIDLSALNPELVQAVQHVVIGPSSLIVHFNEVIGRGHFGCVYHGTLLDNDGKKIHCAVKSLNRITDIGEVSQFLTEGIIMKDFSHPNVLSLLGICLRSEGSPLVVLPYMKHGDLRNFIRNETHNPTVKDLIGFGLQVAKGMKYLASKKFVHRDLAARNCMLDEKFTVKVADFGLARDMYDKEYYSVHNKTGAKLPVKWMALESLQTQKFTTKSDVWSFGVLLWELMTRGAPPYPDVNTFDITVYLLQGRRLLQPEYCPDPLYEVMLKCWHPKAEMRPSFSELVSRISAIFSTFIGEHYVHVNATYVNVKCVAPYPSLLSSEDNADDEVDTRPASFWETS

Substance	migration of MDA-MB435 cells (transwell, 1 nM), percent of wildtype HGF (% of wildtype activity)
HGF N701A (two-chain full length HGF mutant) (from UniProt P14210 32-494; P14210 495-728) (ligand)	60 to 80
HGF P537A (two-chain full length HGF mutant) (from UniProt P14210 32-494; P14210 495-728) (ligand)	60 to 80
HGF R514A (two-chain full length HGF mutant) (from UniProt P14210 32-494; P14210 495-728) (ligand)	60 to 80

Further lines, results first:

migration of MDA-MB435 cells (transwell, 1 nM), percent of wildtype HGF (% of wildtype activity)	Substance
60 to 80	HGF Y619A (two-chain full length HGF mutant) (from UniProt P14210 32-494; P14210 495-728) (ligand)
60 to 80	HGF I699A (two-chain full length HGF mutant) (from UniProt P14210 32-494; P14210 495-728) (ligand)
60 to 80	HGF T620A (two-chain full length HGF mutant) (from UniProt P14210 32-494; P14210 495-728) (ligand)
60 to 80	HGF G621A (two-chain full length HGF mutant) (from UniProt P14210 32-494; P14210 495-728) (ligand)
